Several values for one entry are separate records, joined by “and”; a condition that tells them apart may be missing. Equal values may be shown once. Read-outs that look alike come from different tables or passages of the source.

The target of assay [1] is ATTO 488-labeled β1–spacer–CT (UniProt P09055). The assay can be described thus: MST; apparent; THD1 titrated to 488–β1-spacer-CT in the presence of 30-35 µM KIND2; MST buffer.
The target is the same in assay [2]. Kind of assay: MST; unlabelled protein titrated to 50-200 nM ATTO 488-labelled β-CT peptide, no third protein; 20 mM Tris pH 7.5, 200 mM NaCl, 1 mM TCEP, 0.05% Tween-20; Kd of individual titrations (in S0002 mean and sd, n = 2).
Assay [3] has as its target ATTO 488-labelled β1–spacer–CT (UniProt P05556). Kind of assay: MST; ATTO 488-labelled β-CT peptide (50–200 nM) held constant, one unlabelled protein titrated; 20 mM Tris pH 7.5, 200 mM NaCl, 1 mM TCEP, 0.05% Tween-20; apparent affinities (near-saturation only).
Assay [4] shares this target. Kind of assay: MST; as a7, with a second unlabelled protein present at near-saturating concentration (named in the quantity or in the printed words); apparent constants (Kd,app*).
In assay [5] the target is ATTO 488-labelled β1-CT (488–β1-CT) (UniProt P05556). Kind of assay: MST; ATTO 488-labelled β-CT peptide (50–200 nM) held constant, one unlabelled protein titrated; 20 mM Tris pH 7.5, 200 mM NaCl, 1 mM TCEP, 0.05% Tween-20; apparent affinities (near-saturation only).
For assay [6], the target named is ATTO 488-labelled β1-CT^Y795A (UniProt P05556). The assay is described as above.
Assay [7] concerns the target ATTO 488-labelled β1-CT^Y783A (UniProt P05556). The description is as above.
Assay [8] concerns the target T1, α5-TM lacking the cytoplasmic domain (tailless α5-TM) in nanodiscs (UniProt P11688 993-1025, biotin (biotin-maleimide)).
T1 chain: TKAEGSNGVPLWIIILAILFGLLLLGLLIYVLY
Kind of assay: FACS; 10% PIP2 nanodiscs. Background: Flow cytometry measures light scatter and fluorescence of single cells or particles in a stream.

The target of assay [9] is T2, β1-TM–CT Y783A (THD1-binding impaired) in nanodiscs (UniProt P09055 726-798, Y783A, biotin (biotin-maleimide)). The assay can be described thus: FACS; 10% PIP2 nanodiscs.
Assay [10] deals with T3, β1-TM–CT Y795A (KIND2-binding impaired) in nanodiscs (UniProt P09055 726-798, Y795A, biotin (biotin-maleimide)). The assay can be described thus: FACS; 10% PIP2 nanodiscs.
Assay [11] has as its target T4, β1 transmembrane and cytoplasmic tail polypeptide (β1-TM–CT) in nanodiscs (UniProt P05556 726-798, biotin (biotin-maleimide)).
T4 chain: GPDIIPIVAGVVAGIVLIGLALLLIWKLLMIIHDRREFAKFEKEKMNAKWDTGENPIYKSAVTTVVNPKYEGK
The assay can be described thus: FACS; 10% PIP2 nanodiscs.

Assay [12] deals with T5, β3 transmembrane and cytoplasmic tail polypeptide (β3-TM–CT) in nanodiscs (UniProt O54890 715-787, biotin (biotin-maleimide)).
T5 chain: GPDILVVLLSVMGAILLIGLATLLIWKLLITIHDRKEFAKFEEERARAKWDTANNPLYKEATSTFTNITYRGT
Kind of assay: FACS; 10% PIP2 nanodiscs.

In assay [13] the target is T1, α5-TM lacking the cytoplasmic domain …. Kind of assay: FACS; 10% PIP3 nanodiscs.
For assay [14], the target named is T2, β1-TM–CT Y783A (THD1-binding impaired) …. The assay can be described thus: FACS; 10% PIP3 nanodiscs.
Assay [15] concerns the target T4, β1 transmembrane and cytoplasmic tail …. Kind of assay: FACS; 10% PIP3 nanodiscs.
For assay [16], the target named is T5, β3 transmembrane and cytoplasmic tail …. Kind of assay: FACS; 10% PIP3 nanodiscs.
The target of assay [17] is β1-TM–CT Y783A (THD1-binding impaired) in nanodiscs (UniProt P09055). The assay can be described thus: flow cytometry-based reporter-displacement assay (FC-RDA) on beads; biotinylated TM–CT in 10% PIP3/90% DMPC nanodiscs on streptavidin beads; reporter 50 nM 647–KIND2, unlabelled competitor titrated; 20 mM Tris pH 7.5, 200 mM NaCl, room temperature; IC50 of individual experiments; charged lipids contribute to the binding.

Assay [18] deals with ATTO 488-labeled β1–spacer–CT (UniProt P09055). The assay can be described thus: MST; unlabelled protein titrated to 50-200 nM ATTO 488-labelled β-CT peptide, no third protein; 20 mM Tris pH 7.5, 200 mM NaCl, 1 mM TCEP, 0.05% Tween-20; Kd of individual titrations (in S0002 mean and sd, n = 2). This is another data set of the same source.
For assay [19] the target is unchanged. The assay can be described thus: MST; apparent; KIND2-Y13A titrated to 488–β3-CT or KIND2 to 488–β1-spacer-CT in the presence of 300-400 µM THD1; MST buffer.
For assay [20], the target named is ATTO 488-labelled β1–spacer–CT (UniProt P05556). Kind of assay: MST; ATTO 488-labelled β-CT peptide (50–200 nM) held constant, one unlabelled protein titrated; 20 mM Tris pH 7.5, 200 mM NaCl, 1 mM TCEP, 0.05% Tween-20; apparent affinities (near-saturation only). The source holds these as a separate data set.
Assay [21] deals with T3, β1-TM–CT Y795A (KIND2-binding impaired) …. The assay can be described thus: FACS; 10% PIP3 nanodiscs.

Sequence of ATTO 488-labelled β1-CT^Y783A (P05556 752-798 Y783A): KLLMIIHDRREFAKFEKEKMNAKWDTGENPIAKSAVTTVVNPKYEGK
Sequence of ATTO 488-labelled β1-CT^Y795A (P05556 752-798 Y795A): as the sequence (P05556 752-798 Y783A) above, with A32Y, Y44A counted along it

Consider “talin-1 head domain (THD1) (from UniProt P26039 1-405) (domain or fragment)”, for which the Kd in assay [1] was 254000 nM and 320000 nM and 262000 nM; in assay [2], 178000 nM and 171000 nM and 193000 nM; in assay [3], 181000 nM. In addition, in assay [4], the apparent Kd (Kd,app*) in the presence of KIND2 was determined as 279000 nM.

Take TLN1-F3–ΔKIND2 fusion protein: in [5], the Kd of the kindlin contribution (fit of concentrations up to 5 µM) turned out to be 2900 nM and the Kd of the talin contribution (fit of concentrations above 5 µM) worked out at 25000 nM. Besides, in assay [6], the Kd stood at 470000 nM. For the same molecule, the Kd in [7] was 4800 nM.

B1: talin-1 head domain (THD1) (domain or fragment)
chain: MVALSLKISIGNVVKTMQFEPSTMVYDACRMIRERIPEALAGPPNDFGLFLSDDDPKKGIWLEAGKALDYYMLRNGDTMEYRKKQRPLKIRMLDGTVKTIMVDDSKTVTDMLMTICARIGITNHDEYSLVRELMEEKKDEGTGTLRKDKTLLRDEKKMEKLKQKLHTDDELNWLDHGRTLREQGVEEHETLLLRRKFFYSDQNVDSRDPVQLNLLYVQARDDILNGSHPVSFDKACEFAGFQCQIQFGPHNEQKHKAGFLDLKDFLPKEYVKQKGERKIFQAHKNCGQMSEIEAKVRYVKLARSLKTYGVSFFLVKEKMKGKNKLVPRLLGITKECVMRVDEKTKEVIQEWSLTNIKRWAASPKSFTLDFGDYQDGYYSVQTTEGEQIAQLIAGYIDIILKKKKS
B1: the concentration for half-maximal inhibition (IC50) in assay [8] came to 274 nM; in [9] it was 307 nM; in assay [10], 98 nM; in assay [11] it was 73 nM; in assay [12] it was 66 nM; in assay [13] it was 411 nM. In addition, the IC50 in [14] amounted to 427 nM; in [15], 92 nM; in [16] it was 83 nM.

B2: kindlin-2 (KIND2) (natural protein)
chain: MALDGIRMPDGCYADGTWELSVHVTDLNRDVTLRVTGEVHIGGVMLKLVEKLDVKKDWSDHALWWEKKRTWLLKTHWTLDKCGIQADAKLQFTPQHKLLRLQLPNMKYVKVKVNFSDRVFKAVSDICKTFNIRHPEELSLLKKPRDPTKKKKKKLDDQSEDEALELEGPLIMPGSGSIYSSPGLYSKTMTPTYDAHDGSPLSPTSAWFGDSALSEGNPGILAVSQPVTSPEILAKMFKPQALLDKAKTNQGWLDSSRSLMEQDVKENEALLLRFKYYSFFDLNPKYDAIRINQLYEQAKWALLLEEIECTEEEMMMFAALQYHINKLSIMTSENHLNNSDKEVDEVDAALSDLEITLEGGKTSTILGDITSIPELADYIKVFKPKKLTLKGYKQYWCTFKDTSISCYKSREESSGTPAHQLNLRGCEVTPDVNISGQKFNIKLLIPVAEGMNEIWLRCDNEKQYAHWMAACRLASKGKTMADSSYNLEVQNILSFLKMQHLNPDPQLIPDQITTDVNPECLVSPRYLKKYKSKQITARILEAHQNVAQMSLIEAKMRFIQAWQSLPEFGITHFIARFQGGKREELIGIAYNRLIRMDASTGDAIKTWRFSNMKQWNVNWEIKMVTVEFADEVRLSFICTEVDCKVVHEFIGGYIFLSTRAKDQNESLDEEMFYKLTSGWV
For B2, in assay [17], the IC50 is 297 nM and 278 nM and 387 nM. Moreover, the Kd in [18] was 5470 nM and 5420 nM and 5120 nM; in assay [19], 6090 nM and 3020 nM and 8050 nM; in assay [20], 5000 nM. For the same molecule, the apparent Kd (Kd,app*) in the presence of THD1 in [4] was 6000 nM.

B3: kindlin-2 (KIND2) (natural protein)
chain: MALDGIRMPDGCYADGTWELSVHVTDLNRDVTLRVTGEVHIGGVMLKLVEKLDVKKDWSDHALWWEKKRTWLLKTHWTLDKCGIQADAKLQFTPQHKLLRLQLPNMKYVKVKVNFSDRVFKAVSDICKTFNIRHPEELSLLKKPRDPTKKKKKKLDDQSEDEALELEGPLIMPGSGSIYSSPGLYSKTMTPTYDAHDGSPLSPTSAWFGDSALSEGNPGILAVSQPVTSPEILAKMFKPQALLDKAKTNQGWLDSSRSLMEQDVKENEALLLRFKYYSFFDLNPKYDAIRINQLYEQAKWALLLEEIECTEEEMMMFAALQYHINKLSIMTSENHLNNSDKEVDEVDAALSDLEITLEGGKTSTILGDITSIPELADYIKVFKPKKLTLKGYKQYWCTFKDTSISCYKSREESSGTPAHQLNLRGCEVTPDVNISGQKFNIKLLIPVAEGMNEIWLRCDNEKQYAHWMAACRLASKGKTMADSSYNLEVQNILSFLKMQHLNPDPQLIPDQITTDVNPECLVSPRYLKKYKSKQITARILEAHQNVAQMSLIEAKMRFIQAWQSLPEFGITHFIARFQGGKREELIGIAYNRLIRMDASTGDAIKTWRFSNMKQWNVNWEIKMVTVEFADEVRLSFICTEVDCKVVHEFIGGYIFLSTRAKDQNESLDEEMFYKLTSGWV
As to B3, the half-maximal inhibitory concentration (IC50) in assay [8] worked out at 444 nM; in assay [9], 117 nM; in assay [10], 370 nM; in assay [11], 120 nM; in assay [12], 95 nM; in assay [13] it was 471 nM. The 50% inhibitory concentration (IC50) stood at 255 nM in assay [14], 162 nM in assay [21] and 102 nM in assay [15].

Usually IC50 stands for the concentration at which inhibition is half-maximal.

Values taken from publication PMC10716038, “Talin and kindlin use integrin tail allostery and direct binding to activate integrins” (Nature Structural & Molecular Biology, 2023).
